Data published in patent US20200140851A1 (Scripps Research, published 2020).

Molecular target: T1, mouse vimentin (VIM from wild-type C57BL/6J mouse bone marrow lysates) (mouse, UniProt P20152 2-466)
T1 construct: Endogenous protein in bone marrow lysate, denatured for SDS/PAGE and Western blot
Assay: Western blot of bone marrow lysate
Protocol: To identify the protein recognized by the B1 antibody, antibodies were produced recombinantly in Expi293F cells. Purified B1 antibody (at a concentration of about 5-10 μg/ml) was incubated with human CD34⁺ cells, and immune complexes from cellular lysates were captured on a protein A/G column. Proteins that reacted with the antibody were identified by silver staining of SDS gels and their identity determined by mass spectrometry (MS). Three candidate proteins were identified above the background threshold (FIG. 5A). Vimentin (VIM) was one of the top hits and was confirmed to be B1 target antigen of B1 Ab by Western blotting. […] Also, VIM expression was found in human CD34⁺ cells by immunofluorescence cytochemistry using B1 or commercial VIM antibodies (FIG. 5C). The amino acid sequence identity between mouse and human VIM is greater than 97%.
Western blot: Cells were washed with PBS and then lysed in lysis buffer (50 mM Hlepes, pH 7.2, 150 mM NaCl, 50 mM NaF, 1 mM Na3VO₄, 10% glycerol, 1% Triton X-100). The lysates were then centrifuged at 12,000×g for 15 min at 4° C. The proteins were denatured in Laemmli sample buffer (5 min at 95° C.), separated by SDS/PAGE, and transferred to nitrocellulose membranes using the iBlot blotting system (Invitrogen). […]

T1 sequence (P20152 2-466 limits assumed): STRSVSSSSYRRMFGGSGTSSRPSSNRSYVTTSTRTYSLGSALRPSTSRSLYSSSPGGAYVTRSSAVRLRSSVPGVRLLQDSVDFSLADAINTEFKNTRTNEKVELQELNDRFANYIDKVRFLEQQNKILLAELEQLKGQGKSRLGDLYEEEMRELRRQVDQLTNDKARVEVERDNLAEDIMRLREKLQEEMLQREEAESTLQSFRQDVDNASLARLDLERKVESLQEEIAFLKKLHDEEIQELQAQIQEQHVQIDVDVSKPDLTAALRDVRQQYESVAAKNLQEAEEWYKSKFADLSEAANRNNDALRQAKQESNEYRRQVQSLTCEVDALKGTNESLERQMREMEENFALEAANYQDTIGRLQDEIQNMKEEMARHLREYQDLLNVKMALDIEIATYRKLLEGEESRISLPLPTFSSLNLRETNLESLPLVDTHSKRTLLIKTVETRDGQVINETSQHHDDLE

binding result: binds
B1: B1 antibody (Fc fusion)
scFv: MAQVQLLESGGGLVQPGGSLTLACAASGFNFNNYNMNWVRQAPGRGLEWVAFISSAADTVHYADSVEGRFTISRDNAKNSLYLHMNSLRDEDTAVYYCARQLLYWGQGTLVTVSSGGGGGSQAVLTQPSSLSASPGASVSLTCTLRSGINVGAYRIYWYQQKPGSPPQFLLRYKSDSDKQQGSGVPSRFSGSRDASANAGILLISWLRSEDEADYYCAIWHSSAWVFGGGTQLTVLG
notes: also called B1 Ab; B1Ab; not shown: Fc tag of the purified ScFv-Fc fusion protein
